Laboratory results published in the domain aggregation screens of Martell et al. (2025).

Test: soluble fraction after stress (log2 fold change); higher = more stays soluble; pooled small domains, quantitative proteomics
Conditions: stress: 50 degC
Outline: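 Custom libraries of small protein domains were pooled and measured in a high-throughput format, with quantitative proteomics as the read-out. Each library was stressed at 50°C. The value is the log2 fold change in the amount of each protein that stays soluble after stress, used as a measure of aggregation propensity; higher values mean more of the protein stays soluble.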

| Sequence | soluble fraction (log2) |
| --- | --- |
| HMKIYDQVVDRIKDRISKGDMPQGSALPPERQLIDELNVSRSSLREGFRILEMMGLIESIPGKGRFVRTSR | -0.235 |
| HMVSGVMAQQAIAVLVQQEDKHAPLSDQALAERLQVQGIDISRRTVAKYRQLLQIPSAATRR | -0.419 |
| HMDGIIIPDVSGKSYAEAVATLNEKGFKVEKGEDAGSSLAKDLVSYTNPAAGNRAKSGATISVFVSTGANA | 0.17 |
| HMGLDMSLEREQHRALREASQWYARLADEQVDSDAERAWRHWVAADEANQRAWQYIEAVSQRFDG | -0.315 |
| HMSSHNIALDQDVVVTQLKGKVYLVAADGSQKQLAEGDILPKDAVLITPEGASFKGGNQTFTLS | 0.17 |
| HMGAGLDDLVRKSLHNAGLKADDNVVSWISGNLGSDRMVSRMELEKLVLFVAGQSEITLEDAQAVIGD | -0.305 |
| HMIVKQPDIRKQELLDIGVRLYFEAGEKGVSIQQVVKQAGVATGLFYYYFSSKDAFLDEALNDYID | 0.102 |
| HMPELTASDEADLKALVGGDQGFEQMANWARSNLGEEEINRFDAVVDSNNKDAIHMAIQAMQARMNA | 0.0174 |
| HMGNGALLTLTVKERQVIQLVAEGKSNKQIARDLNVTPETIKSHMKNIFAKLKVDNRAQAAVMVQQ | -0.638 |
| HMKQISNTDELESMAKNIIQENPDQVSKFKNGNEKLFGWFVGQMMKSTGGTANPKVVNEILKNLLN | 0.152 |
| HMYLLPVTSTELKGNYPNPFNPETTISFDLKDAERVNLSIYNLKGQLVRTLVNSDLPIGRHRLIWDGNDS | -0.603 |
| HMGEAAIYRINILINNLNVRSGPGTLYPRLRRADFPGEYDIFEEKNGFGRISNTKSEWVSLNTQYVQRLT | -0.549 |
| HMTGSETLQDIFAHLEAGTVRTALSLIPRLDAVEYEQNRQRIAELAGVRPSALDDLRKQAKREEN | 0.519 |
| HMWPQIAGFADRFGLSDTERRIVTLMSHGRSRKIIASTLGYSQNTIRNYTRNIYAKAGVHSKQELLDLLDP | -2.13 |
| HMNSNQESFENWLSANSWYNKDRAMRVFADSLGQELRNSGVSFEKALTQISAEVRKEFSHKFQ | -0.163 |
| HMNDADAHASVDAALKHLEALAETTPEVRAALELVRRGPDGRVTVDSFARVAEALREISIAVGAS | 0.107 |
| HMSDYLGSLSHEEKMIFNHFDEDSSTIENMAKKTELKPELISQIFLNLELRGFLRQTEGGLYEKI | -0.000348 |
| HMNAKVVAPIPGTVLSIDIKVGDVIKIGDRLLVLEAMKMENNIASEKSGTVTAVHVKVGQQVLQNELMIEL | -1.39 |
| HMKEADVRKNEILDAAGILFSEKGYDNTSVTDIMNAVGFAKGTLYHHFKSKEDIMDALIKRQTD | 0.219 |
| HMHPRDREENKYLLLRGERIYEESIGEKRLYVEAALHKYEKALSSYDTGLIDEAKEEFKKFLEEIEEA | -0.0765 |
| HMDKSNEVLMNHYRKQEINQAKKRLEEEKMSIIQVLQLTNKEVITTDELLEALYISKEQLLDEIINTTQ | -0.0889 |
| HMAAEPDQQLIKPASDPVLRTMKIEELMKMSEQVKIQMSKAAKNFDYLEAARLRDEHFALENLIKLRS | 0.108 |
| HMPGPAEMPGWITARAKKLGGQITPEAARALAAEMGSDTEQASREIEKLLTYVDYRRPVEEEDVALLTA | -0.0046 |
| HMSTRYVRTPAGQAEIQARVFKLSRPVRNLLLVINDSRSIDDWLVQVHGITADDVAMLRAEGLIAEVS | -2.4 |
| HMNVNALIGQEGIVIKEINSGSNKIGQVKISGDTWSAVTTNDFTNAIPVGSNVKILKIDGVNLIVEPVY | -0.0724 |
| HMEILPAYRDIKKEALLGNINAEFKYVNLLLEHNYIEQAFNIIEDMKTRVDDNPEFEELKSRVADAYLMY | -1.38 |
| HMYQKERDKEISEIETFLKKITNANGTRAYSDESIADMSYVELLNLYEGITSKLTEEEIENI | 0.131 |
| HMKVNMIIVMKPGARETDIQEVSNVLKSAGLGVHISKGTERTIIGVIGDKRLLNGIPLDLMHGVDKLVPIM | 0.0193 |

| Sequence | soluble fraction (log2) |
| --- | --- |
| HMNAMKPVLTVSLGVHTDSLSRRLNEEGIIYRWQQAASEQLLLVDSESSSERIAELIHDWRLEQSSS | -0.0169 |
| HMVAADTVQVPDVTGKTVADAKQALISAGLQVGTVTAKDGKETANTILETSPAAGTSVDKGSKVNLVYSTG | -0.185 |
| HMTKQMELLAQGAAKLSVDLNQRQLDQLQTYYRELVDWNQRMNLTAITQYEEVQVKHFLDSL | -0.0986 |
| HMFEYDEEEYEKLGPNADLTIKSMTDWGQSLVRKGVWSESDFEEFKIMGGTAQGLRALQKVRSYY | -0.451 |
| HMLSSREEKILNYLNEHQIITRKKAQELLETSQSTAGRVLKIMVDNGLIVQYGGSRSIWYELIK | -0.939 |
| HMSASTGTVSYKSGATTVWNSPSWHQVKRYVTFGDTVQLLGKTVDQNGATWYKVGDNQWIPELYLNVAG | -0.508 |
| HMTEIILTARSGRHAVRHRLEGLGYTLTPEELERVHQRFLAVADAKKEVFDEDLHALMADERGT | 0.0349 |
| HMPNYIDAISALLTLKGVGDRKHASTMANILNLQYNSAKQKLDGKRGITLDEVKKVFQYFNEPF | -1.1 |
| HMGVTDLFAVLGFPRSPWLDAEELKQRHHALMADEASANSSPTILNEARRTLQNPALRIRHFLALEFPDH | -0.397 |
| HMDVEMLIDKYQLNDSEAEVLRFMKKNRQSLKTIGIRDVAKATYVSTATIINMAKKIGYSGYSELVFALGN | -0.0472 |
| HMSLSNMIGKNIQWTHVTKTKDAEGNPKTNSETFAGNVRGVKVLNGKPMVVAQDAKGKLHEVEVSEIEAIA | 0.234 |
| HMFTRFTVAQDGWTIGGFTAKEMAVSTAKQHAVDTGKPVTVVAHVAGGGSREAIFNSDGTNDKIWN | 0.0601 |
| HMEQTMNDMLKLVDLLPQNQQDIVRMRFYENMSFKEIAESNQISINTALGRMRYAILNLRKYAAERNL | -2.35 |
| HMVVLPPTEDAPEWAQVFDRLGRPESADGYKLPVPEGADPAFAKLASAKMHELGLSAKQGAALAAWWNEQA | 0.108 |
| HMLDLSDFEVVRDLYLSEQIWNVGDLIIARSKKDDTYKAWEIIRKGTNYVTGIDESHKVEKIWLHDILI | -1.4 |
| HMLSYFKIIKNGLVREGPASYYKIAENLEIGTIVQAFEKHDDWYLIKTHSGRIGWIVASDVTPQV | -0.245 |
| HMTDVGLEAAKAAALKHAGLSADQVTGLTAKLDWDDGQRVYEVDFWQGSTEYEYEINADGTVRQYESEAH | 0.228 |
| HMDPQDGTVKFFNGARGFGFITPDGGGADVFVHVSAVERAGLTQLVEGQRVNFQTLPDTKGKGPKAVNLKV | 0.0729 |
| HMMQEIKLEVINNEELRIDNYINLAGIGLSRSYIQKLIKDGVILVNGKEVKSSYKVSLGDIISVQIPDPG | 0.299 |
| HMDGMRASDMVRAALAGAGKTQKELAEHMGWTPQNLSGRLKNNSLTFDELSKALHFAGYEVSMSDANGAG | 0.0567 |
| HMTLREQISALIKQGKLTQAKLARETGVNGGALSAWINGKYTGNVETVEEPIKHWMALNERK | 0.373 |
| HMKRAVGLDEYRDSIVLKKPEGYTEESYAAYKNAYDALMALDSKETTAEMFANAKSAFEAAQAGLVQKP | 0.101 |
| HMEQPLSLKLANNAFSRFWGNANPAEKDTQPNNSDIAKWVIEQSGGKITQTMADKIAQIIRPEWAA | 0.184 |
| HMNQKTQMTKQILAESLKKLMLHHSFEKITIKDITDAAGFIRPTFYNHFKDKYDLVEWIFTEEI | -0.364 |
| HMVEGMQFDRGYQSPYFVTNAEKMVAELDNPYILLVEKKISSMKELLPVLEPVAQQGKSLLIISEEVEG | -0.0564 |
| HMELEAFPNPTDMFLSFTTKEKTPLAIYDINGKQVLYVEQITSSSKINVSKLSEGVYFAKTNQGTVKWVK | -1.67 |
| HMNRPQDLGEPYDGQFREHPEAWAFYAAQSPSYRRSASWWVLGAKQEVTRQRRLAALIDASAQGTRIPALT | -1.09 |
